For assay [1], the target named is T1, human O-GlcNAcase (hOGA) Y69F (human) (UniProt O60502).
T1 sequence: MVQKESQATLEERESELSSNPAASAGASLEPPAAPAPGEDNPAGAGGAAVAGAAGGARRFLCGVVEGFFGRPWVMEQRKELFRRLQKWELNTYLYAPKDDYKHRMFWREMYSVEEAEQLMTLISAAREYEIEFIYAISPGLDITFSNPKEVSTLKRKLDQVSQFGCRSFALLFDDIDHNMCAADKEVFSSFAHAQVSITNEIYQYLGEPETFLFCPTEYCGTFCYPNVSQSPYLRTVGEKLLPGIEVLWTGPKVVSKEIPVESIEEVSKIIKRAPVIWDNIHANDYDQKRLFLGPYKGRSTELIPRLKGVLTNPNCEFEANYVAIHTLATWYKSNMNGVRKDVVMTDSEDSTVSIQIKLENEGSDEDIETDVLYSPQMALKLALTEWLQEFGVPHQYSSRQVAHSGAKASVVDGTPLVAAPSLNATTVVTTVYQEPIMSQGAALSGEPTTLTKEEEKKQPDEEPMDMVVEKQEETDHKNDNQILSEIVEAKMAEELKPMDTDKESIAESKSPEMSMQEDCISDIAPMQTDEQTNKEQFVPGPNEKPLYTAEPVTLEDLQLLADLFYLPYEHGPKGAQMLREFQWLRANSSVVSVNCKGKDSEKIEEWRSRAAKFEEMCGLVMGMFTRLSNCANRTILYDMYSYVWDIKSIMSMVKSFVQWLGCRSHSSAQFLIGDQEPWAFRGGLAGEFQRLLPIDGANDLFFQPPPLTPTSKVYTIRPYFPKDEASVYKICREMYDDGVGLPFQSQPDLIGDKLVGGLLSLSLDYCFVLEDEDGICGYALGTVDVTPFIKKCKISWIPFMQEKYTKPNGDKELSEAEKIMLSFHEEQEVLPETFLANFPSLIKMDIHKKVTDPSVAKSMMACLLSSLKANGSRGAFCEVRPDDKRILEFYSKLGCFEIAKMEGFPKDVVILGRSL

In assay [2] the target is T2, human O-GlcNAcase (hOGA) Y69K (human) (UniProt O60502).
T2 sequence: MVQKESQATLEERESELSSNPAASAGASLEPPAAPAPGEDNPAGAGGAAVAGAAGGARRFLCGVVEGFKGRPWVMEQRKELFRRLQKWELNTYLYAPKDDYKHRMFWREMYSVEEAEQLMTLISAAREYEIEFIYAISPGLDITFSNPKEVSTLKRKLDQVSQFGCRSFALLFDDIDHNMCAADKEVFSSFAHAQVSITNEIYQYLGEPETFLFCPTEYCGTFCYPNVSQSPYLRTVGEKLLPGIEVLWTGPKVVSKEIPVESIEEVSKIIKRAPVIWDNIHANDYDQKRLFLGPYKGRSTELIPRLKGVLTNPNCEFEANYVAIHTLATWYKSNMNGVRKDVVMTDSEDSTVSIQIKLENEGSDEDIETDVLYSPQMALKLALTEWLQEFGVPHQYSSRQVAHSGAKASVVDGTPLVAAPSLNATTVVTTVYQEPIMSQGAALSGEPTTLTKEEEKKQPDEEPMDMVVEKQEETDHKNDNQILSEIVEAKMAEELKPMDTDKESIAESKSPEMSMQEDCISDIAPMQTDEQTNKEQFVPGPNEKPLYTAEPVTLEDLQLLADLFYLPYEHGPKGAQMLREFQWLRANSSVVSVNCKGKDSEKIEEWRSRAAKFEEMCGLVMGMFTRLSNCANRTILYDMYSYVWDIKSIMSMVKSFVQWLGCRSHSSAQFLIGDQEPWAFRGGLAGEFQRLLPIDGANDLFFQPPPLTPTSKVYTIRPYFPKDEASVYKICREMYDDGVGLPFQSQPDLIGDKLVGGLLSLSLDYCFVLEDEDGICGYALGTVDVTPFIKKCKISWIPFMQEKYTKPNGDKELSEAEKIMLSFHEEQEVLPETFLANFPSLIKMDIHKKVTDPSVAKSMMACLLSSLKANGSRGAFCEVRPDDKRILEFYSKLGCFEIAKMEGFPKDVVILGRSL

*: point of attachment. βGlcNAc = CC(=O)N[C@@H]1[C@@H](O)[C@H](O)[C@@H](CO)O[C@H]1*

B1: TAB1 peptide PVSVPYS(O-GlcNAc)SAQSTS (peptide)
peptide: Ac-PVSVPYS(βGlcNAc)SAQSTS-NH2
SMILES: CC(=O)N[C@H]1[C@H](OC[C@H](NC(=O)[C@H](Cc2ccc(O)cc2)NC(=O)[C@@H]2CCCN2C(=O)[C@@H](NC(=O)[C@H](CO)NC(=O)[C@@H](NC(=O)[C@@H]2CCCN2C(C)=O)C(C)C)C(C)C)C(=O)N[C@@H](CO)C(=O)N[C@@H](C)C(=O)N[C@@H](CCC(N)=O)C(=O)N[C@@H](CO)C(=O)N[C@H](C(=O)N[C@@H](CO)C(N)=O)[C@@H](C)O)O[C@H](CO)[C@@H](O)[C@@H]1O
In the case of B1, the figures for the KM of the glycopeptide substrate (substrate competition assay with 4MU-GlcNAc as reporter substrate) in assay [1] and in assay [2] were 1100 µM and above 4000 µM, respectively.
